The values that follow come from doi:10.1101/2023.06.22.546118 (bioRxiv, 2023).

The target of data set [1] is T1, HSV-1 UL31 full length (1-306) with R229L (SUP_UL31) (herpes simplex virus 1 (HSV-1), UniProt P10215 1-306, R229L).
T1 sequence: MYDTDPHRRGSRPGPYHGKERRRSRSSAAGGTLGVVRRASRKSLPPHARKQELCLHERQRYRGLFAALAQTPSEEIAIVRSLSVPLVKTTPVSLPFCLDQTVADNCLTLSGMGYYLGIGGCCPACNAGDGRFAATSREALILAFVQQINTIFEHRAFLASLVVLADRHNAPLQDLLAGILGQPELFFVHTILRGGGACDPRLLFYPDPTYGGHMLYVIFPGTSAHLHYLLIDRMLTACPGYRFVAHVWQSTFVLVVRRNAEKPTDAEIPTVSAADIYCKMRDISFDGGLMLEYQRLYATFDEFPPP
Nature of the data set: cryo-EM structure.

Data set [2] concerns the molecule itself. Put plainly: cryo-EM structure.
Data set [3] addresses T2, HSV-1 UL31 full length (1-306), wild type (herpes simplex virus 1 (HSV-1), UniProt P10215 1-306).
T2 sequence: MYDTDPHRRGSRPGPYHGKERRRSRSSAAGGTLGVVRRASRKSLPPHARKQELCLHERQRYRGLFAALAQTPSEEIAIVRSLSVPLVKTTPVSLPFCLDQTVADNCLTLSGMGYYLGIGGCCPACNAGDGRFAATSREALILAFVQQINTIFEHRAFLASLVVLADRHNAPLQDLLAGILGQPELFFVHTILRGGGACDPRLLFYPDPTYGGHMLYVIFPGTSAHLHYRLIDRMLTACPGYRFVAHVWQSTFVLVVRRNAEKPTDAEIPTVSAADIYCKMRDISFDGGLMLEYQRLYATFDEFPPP
Nature of the data set: cryo-EM structure.

In data set [4] the target is T2, HSV-1 UL31 full length (1-306), wild …. Put plainly: SEC.
Data set [5] has as its target T1, HSV-1 UL31 full length (1-306) with …. Nature of the data set: SEC.
Data set [6] concerns the molecule itself. Put plainly: crystal structure.

B1: HSV-1 UL34 residues 1-220 with D35A/E37A (DN_UL34) (domain or fragment)
chain: MAGLGKPYTGHPGDAFEGLVQRIRLIVPSTLRGGAGAAGPYSPSSLPSRCAFQFHGHDGSDESFPIEYVLRLMNDWAEVPCNPYLRIQNTGVSVLFQGFFHRPHNAPGGAITPERTNVILGSTETTGLSLGDLDTIKGRLGLDARPMMASMWISCFVRMPRVQLAFRFMGPEDAGRTRRILCRAAEQAITRRRRTRRSREAYGAEAGLGVAGTGFRARGD
Turning to B1, in data set [1], the binding result was “binds”.

B2: NEC220, wild-type soluble HSV-1 nuclear egress complex (UL31 1-306 with UL34 1-220) (complex)
chain 1: MYDTDPHRRGSRPGPYHGKERRRSRSSAAGGTLGVVRRASRKSLPPHARKQELCLHERQRYRGLFAALAQTPSEEIAIVRSLSVPLVKTTPVSLPFCLDQTVADNCLTLSGMGYYLGIGGCCPACNAGDGRFAATSREALILAFVQQINTIFEHRAFLASLVVLADRHNAPLQDLLAGILGQPELFFVHTILRGGGACDPRLLFYPDPTYGGHMLYVIFPGTSAHLHYRLIDRMLTACPGYRFVAHVWQSTFVLVVRRNAEKPTDAEIPTVSAADIYCKMRDISFDGGLMLEYQRLYATFDEFPPP
chain 2: MAGLGKPYTGHPGDAFEGLVQRIRLIVPSTLRGGDGEAGPYSPSSLPSRCAFQFHGHDGSDESFPIEYVLRLMNDWAEVPCNPYLRIQNTGVSVLFQGFFHRPHNAPGGAITPERTNVILGSTETTGLSLGDLDTIKGRLGLDARPMMASMWISCFVRMPRVQLAFRFMGPEDAGRTRRILCRAAEQAITRRRRTRRSREAYGAEAGLGVAGTGFRARGD
Regarding B2, the binding result in data set [2] is “binds”.

B3: NEC220-SUP_(UL31) (UL31 1-306 R229L with UL34 1-220) (complex)
chain 1: MYDTDPHRRGSRPGPYHGKERRRSRSSAAGGTLGVVRRASRKSLPPHARKQELCLHERQRYRGLFAALAQTPSEEIAIVRSLSVPLVKTTPVSLPFCLDQTVADNCLTLSGMGYYLGIGGCCPACNAGDGRFAATSREALILAFVQQINTIFEHRAFLASLVVLADRHNAPLQDLLAGILGQPELFFVHTILRGGGACDPRLLFYPDPTYGGHMLYVIFPGTSAHLHYLLIDRMLTACPGYRFVAHVWQSTFVLVVRRNAEKPTDAEIPTVSAADIYCKMRDISFDGGLMLEYQRLYATFDEFPPP
chain 2: MAGLGKPYTGHPGDAFEGLVQRIRLIVPSTLRGGDGEAGPYSPSSLPSRCAFQFHGHDGSDESFPIEYVLRLMNDWAEVPCNPYLRIQNTGVSVLFQGFFHRPHNAPGGAITPERTNVILGSTETTGLSLGDLDTIKGRLGLDARPMMASMWISCFVRMPRVQLAFRFMGPEDAGRTRRILCRAAEQAITRRRRTRRSREAYGAEAGLGVAGTGFRARGD
In the case of B3, the binding result in data set [2] was “binds”.

B4: NEC220-DN_(UL34)/SUP_(UL31) (UL31 1-306 R229L with UL34 1-220 D35A/E37A) (complex)
chain 1: MYDTDPHRRGSRPGPYHGKERRRSRSSAAGGTLGVVRRASRKSLPPHARKQELCLHERQRYRGLFAALAQTPSEEIAIVRSLSVPLVKTTPVSLPFCLDQTVADNCLTLSGMGYYLGIGGCCPACNAGDGRFAATSREALILAFVQQINTIFEHRAFLASLVVLADRHNAPLQDLLAGILGQPELFFVHTILRGGGACDPRLLFYPDPTYGGHMLYVIFPGTSAHLHYLLIDRMLTACPGYRFVAHVWQSTFVLVVRRNAEKPTDAEIPTVSAADIYCKMRDISFDGGLMLEYQRLYATFDEFPPP
chain 2: MAGLGKPYTGHPGDAFEGLVQRIRLIVPSTLRGGAGAAGPYSPSSLPSRCAFQFHGHDGSDESFPIEYVLRLMNDWAEVPCNPYLRIQNTGVSVLFQGFFHRPHNAPGGAITPERTNVILGSTETTGLSLGDLDTIKGRLGLDARPMMASMWISCFVRMPRVQLAFRFMGPEDAGRTRRILCRAAEQAITRRRRTRRSREAYGAEAGLGVAGTGFRARGD
Consider B4, for which the binding result in data set [2] was “binds”.

B5: HSV-1 UL34 residues 1-220, wild type (domain or fragment)
chain: MAGLGKPYTGHPGDAFEGLVQRIRLIVPSTLRGGDGEAGPYSPSSLPSRCAFQFHGHDGSDESFPIEYVLRLMNDWAEVPCNPYLRIQNTGVSVLFQGFFHRPHNAPGGAITPERTNVILGSTETTGLSLGDLDTIKGRLGLDARPMMASMWISCFVRMPRVQLAFRFMGPEDAGRTRRILCRAAEQAITRRRRTRRSREAYGAEAGLGVAGTGFRARGD
Regarding B5, the binding result in data set [3] was “binds”.

B6: HSV-1 UL34 residues 1-220 with K137A/R139A (domain or fragment)
chain: MAGLGKPYTGHPGDAFEGLVQRIRLIVPSTLRGGDGEAGPYSPSSLPSRCAFQFHGHDGSDESFPIEYVLRLMNDWAEVPCNPYLRIQNTGVSVLFQGFFHRPHNAPGGAITPERTNVILGSTETTGLSLGDLDTIAGALGLDARPMMASMWISCFVRMPRVQLAFRFMGPEDAGRTRRILCRAAEQAITRRRRTRRSREAYGAEAGLGVAGTGFRARGD
Turning to B6, the binding result in data set [4] and in data set [5] was “binds” each time.

B7: HSV-1 UL34 residues 1-220 with K137A (domain or fragment)
chain: MAGLGKPYTGHPGDAFEGLVQRIRLIVPSTLRGGDGEAGPYSPSSLPSRCAFQFHGHDGSDESFPIEYVLRLMNDWAEVPCNPYLRIQNTGVSVLFQGFFHRPHNAPGGAITPERTNVILGSTETTGLSLGDLDTIAGRLGLDARPMMASMWISCFVRMPRVQLAFRFMGPEDAGRTRRILCRAAEQAITRRRRTRRSREAYGAEAGLGVAGTGFRARGD
Take B7: the binding result in data set [4] and in data set [5] was “binds” each time.

B8: HSV-1 UL34 residues 1-220 with R139A (domain or fragment)
chain: MAGLGKPYTGHPGDAFEGLVQRIRLIVPSTLRGGDGEAGPYSPSSLPSRCAFQFHGHDGSDESFPIEYVLRLMNDWAEVPCNPYLRIQNTGVSVLFQGFFHRPHNAPGGAITPERTNVILGSTETTGLSLGDLDTIKGALGLDARPMMASMWISCFVRMPRVQLAFRFMGPEDAGRTRRILCRAAEQAITRRRRTRRSREAYGAEAGLGVAGTGFRARGD
On to B8, for which the binding result in data set [4] was “binds”.

B9: NEC185Δ50-SUP_(UL31) heterodimer (UL31 51-306 R229L with UL34 15-185) (complex)
chain 1: QELCLHERQRYRGLFAALAQTPSEEIAIVRSLSVPLVKTTPVSLPFCLDQTVADNCLTLSGMGYYLGIGGCCPACNAGDGRFAATSREALILAFVQQINTIFEHRAFLASLVVLADRHNAPLQDLLAGILGQPELFFVHTILRGGGACDPRLLFYPDPTYGGHMLYVIFPGTSAHLHYLLIDRMLTACPGYRFVAHVWQSTFVLVVRRNAEKPTDAEIPTVSAADIYCKMRDISFDGGLMLEYQRLYATFDEFPPP
chain 2: AFEGLVQRIRLIVPSTLRGGDGEAGPYSPSSLPSRCAFQFHGHDGSDESFPIEYVLRLMNDWAEVPCNPYLRIQNTGVSVLFQGFFHRPHNAPGGAITPERTNVILGSTETTGLSLGDLDTIKGRLGLDARPMMASMWISCFVRMPRVQLAFRFMGPEDAGRTRRILCRAA
B9: the “stoichiometry N” value in data set [6] was 6.

B10: NEC185Δ50-DN_(UL34)/SUP_(UL31) heterodimer (UL31 51-306 R229L with UL34 15-185 D35A/E37A) (complex)
chain 1: QELCLHERQRYRGLFAALAQTPSEEIAIVRSLSVPLVKTTPVSLPFCLDQTVADNCLTLSGMGYYLGIGGCCPACNAGDGRFAATSREALILAFVQQINTIFEHRAFLASLVVLADRHNAPLQDLLAGILGQPELFFVHTILRGGGACDPRLLFYPDPTYGGHMLYVIFPGTSAHLHYLLIDRMLTACPGYRFVAHVWQSTFVLVVRRNAEKPTDAEIPTVSAADIYCKMRDISFDGGLMLEYQRLYATFDEFPPP
chain 2: AFEGLVQRIRLIVPSTLRGGAGAAGPYSPSSLPSRCAFQFHGHDGSDESFPIEYVLRLMNDWAEVPCNPYLRIQNTGVSVLFQGFFHRPHNAPGGAITPERTNVILGSTETTGLSLGDLDTIKGRLGLDARPMMASMWISCFVRMPRVQLAFRFMGPEDAGRTRRILCRAA
Take B10: the binding result in data set [6] is listed as “binds”.

B11: HSV-1 UL31 residues 51-306 with R229L (SUP_UL31), crystallization construct (domain or fragment)
chain: QELCLHERQRYRGLFAALAQTPSEEIAIVRSLSVPLVKTTPVSLPFCLDQTVADNCLTLSGMGYYLGIGGCCPACNAGDGRFAATSREALILAFVQQINTIFEHRAFLASLVVLADRHNAPLQDLLAGILGQPELFFVHTILRGGGACDPRLLFYPDPTYGGHMLYVIFPGTSAHLHYLLIDRMLTACPGYRFVAHVWQSTFVLVVRRNAEKPTDAEIPTVSAADIYCKMRDISFDGGLMLEYQRLYATFDEFPPP
As to B11, the binding result in data set [6] is recorded as “binds”.
